# Results as given in patent US10889618B2, “D-enantiomeric peptides derived from D3 and use thereof” (FORSCHUNGSZENTRUM JUELICH GMBH, priority 2012, dated 2021).
# “Also recorded” adds a separate entry of the source. Non-standard residues stand in square brackets, D forms with d. No end group written: not given here.
# Columns and labels:
# A-beta1-42 = biological target: T1, A-beta1-42 (Homo sapiens, UniProt P05067); assay: Density gradient centrifugation (iodixanol): modulation of A-beta1-42 aggregation behavior; assay type: biochemical; details: for Peptide bound in fraction 12 [%]: FITC-labelled peptide, amount of dye in fraction 12 of the iodixanol gradient, estimate of binding to / precipitation of A-beta oligomers; for Effect on A-beta aggregation (distribution of A-beta over gradient fractions): 80 μM A-beta1-42, 20 μM peptide, 259,000×g, 3 h, 4° C., SDS-PAGE, silver staining
# T1 construct: overlayed with 100 μl of a 80 μM A-beta1-42 solution
# Source text: The effects of the peptides described in the table on A-beta aggregation were investigated by means of density gradient centrifugation. Thus, A-beta was mixed with the respective peptide and the particles formed are separated according to size. The sample to be investigated was placed on the surface of the centrifuge tube in which a density gradient was charged, which consisted of layers of different iodixanol concentrations in this example. During the several hours of separation, the molecules sediment at different rates in the solvent, namely, more rapidly the larger the particles. The centrifugation is terminated at a suitable time point and different constituents of the sample are obtained in the various layers which are analyzed by SDS-PAGE. A-beta without addition of peptide served as control.
# This changes on addition of RD2. […] Large aggregates are formed which are detectable in fractions 10-15. […] All D-enantiomeric peptides which were characterized with A-beta using the method mentioned above were labelled with FITC. The amount of dye detectable in fraction 12 was used to estimate the binding strength of the respective D3 derivative to A-beta oligomers or the oligomer precipitating effects thereof in vitro. It was shown that the peptide RD2 especially has a significant effect on A-beta aggregation compared to D3.
# FIG. 1: Modulation of the A-beta1-42 aggregation behavior by RD2, analzyed by an iodixanol density gradient. The iodixanol gradient was overlayed with 100 μl of a 80 μM A-beta1-42 solution and 100 μl of a 80 μM A-beta and 20 μM RD2 mixture. The mixture was then centrifuged at 259,000×g for 3 h at 4° C. The 15 fractions (fraction 15 is the pellet boiled with the loading buffer) were harvested manually immediately after the centrifugation and analyzed by Tris-Tricin-SDS-PAGE followed by silver staining.
# A-beta oligomers = A-beta oligomers (Homo sapiens, UniProt P05067); details: D3 in higher concentrations (than 20 μM); cited from earlier work
# Chain of A-beta oligomers (P05067 672-713 limits assumed): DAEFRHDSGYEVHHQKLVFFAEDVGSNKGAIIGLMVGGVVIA
# T1 sequence (P05067 672-713): as the sequence (P05067 672-713 limits assumed) above
Substance,Peptide bound in fraction 12 [%] (A-beta1-42),Effect on A-beta aggregation (distribution of A-beta over gradient fractions) (A-beta1-42),Precipitation of A-beta oligomers (A-beta oligomers)
"pnhhrrrrrttl ([dP][dN][dH][dH][dR][dR][dR][dR][dR][dT][dT][dL]) [RD1, D3 derivative, rational D3]",3,–,–
"ptlhthnrrrrr ([dP][dT][dL][dH][dT][dH][dN][dR][dR][dR][dR][dR]) [RD2, D3 derivative, rational D3]",20,fewer A-beta oligomers could be detected in the fractions 3-9,–
"rprtrl ([dR][dP][dR][dT][dR][dL]) [NT-D3, D3 derivative, D3-N-Terminus]",0,–,–
"rprtrlhthrnr ([dR][dP][dR][dT][dR][dL][dH][dT][dH][dR][dN][dR]) [Peptide D3, D-enantiomeric D-peptide D3, parent peptide used as comparison, reference compound]",4,no change was apparent; also recorded: no effect,"precipitates A-beta oligomers and converts them into large, amorphous and non-toxic aggregates"
"rprtrlrnr ([dR][dP][dR][dT][dR][dL][dR][dN][dR]) [Peptide D3Δhth, D3 with deletion hth]",2,–,–
"rrptlrhthnrr ([dR][dR][dP][dT][dL][dR][dH][dT][dH][dN][dR][dR]) [RD3, D3 derivative, rational D3]",4,–,–
